Source: paper PMC10897159, “Structural insights into the activation mechanism of antimicrobial GBP1” (The EMBO Journal, 2024)
Positions count from the first letter of the chain named. Numbers in names are those of the source.

B1: isolated LG domain of GBP1 Δ207-223 (domain or fragment, human, UniProt P32455 1-317, looked up)
chain: MASEIHMTGPMCLIENTNGRLMANPEALKILSAITQPMVVVAIVGLYRTGKSYLMNKLAGKKKGFSLGSTVQSHTKGIWMWCVPHPKKPGHILVLLDTEGLGDVEKGDNQNDSWIFALAVLLSSTFVYNSIGTINQQAMDQLYYVTELTHRIRSKSSPDENENEVEDSADFVSFFPDFVWTLRDFSLDLEADGQPLTPDEYLTYSLGGGSLCIRKFFPKKKCFVFDRPVHRRKLAQLEKLQDEELDPEFVQQVADFCSYIFSNSKTKTLSGGIQVNGPRLESLVLTYVNAISSGDLPCMENAVL
notes: LG domain of GBP1, human; stop codon in place of A318; also called α4’ variant LG domain construct; source: E. coli, pQE-80L, purified (Ni Sepharose HP, Superdex 200)
B2: GBP1 Δ207-216, non-farnesylated (natural protein, human, UniProt P32455 1-592, looked up)
chain: MASEIHMTGPMCLIENTNGRLMANPEALKILSAITQPMVVVAIVGLYRTGKSYLMNKLAGKKKGFSLGSTVQSHTKGIWMWCVPHPKKPGHILVLLDTEGLGDVEKGDNQNDSWIFALAVLLSSTFVYNSIGTINQQAMDQLYYVTELTHRIRSKSSPDENENEVEDSADFVSFFPDFVWTLRDFSLDLEADGQPLTPDEYLTYSLGGGSETFNLPRLCIRKFFPKKKCFVFDRPVHRRKLAQLEKLQDEELDPEFVQQVADFCSYIFSNSKTKTLSGGIQVNGPRLESLVLTYVNAISSGDLPCMENAVLALAQIENSAAVQKAIAHYEQQMGQKVQLPTETLQELLDLHRDSEREAIEVFIRSSFKDVDHLFQKELAAQLEKKRDDFCKQNQEASSDRCSALLQVIFSPLEEEVKAGIYSKPGGYRLFVQKLQDLKKKYYEEPRKGIQAEEILQTYLKSKESMTDAILQTDQTLTEKEKEIEVERVKAESAQASAKMLQEMQRKNEQMMEQKERSYQEHLKQLTEKMENDRVQLLKEQERTLALKLQEQEQLLKEGFQKESRIMKNEIQDLQTKMRRRKACTIS
notes: GBP1, human, full-length construct; also called helix α4’ variant; source: E. coli, pQE-80L, purified (Ni Sepharose HP, Superdex 200)
B3: GBP1 Δ207-216, farnesylated (natural protein, human, UniProt P32455 1-592, looked up)
chain: B2 chain
modifications: farnesyl moiety at the C-terminal CaaX box motif
notes: GBP1, human, full-length construct; also called helix α4’ variant
B4: GBP1 Δ207-213, farnesylated (natural protein, human, UniProt P32455 1-592, looked up)
chain: MASEIHMTGPMCLIENTNGRLMANPEALKILSAITQPMVVVAIVGLYRTGKSYLMNKLAGKKKGFSLGSTVQSHTKGIWMWCVPHPKKPGHILVLLDTEGLGDVEKGDNQNDSWIFALAVLLSSTFVYNSIGTINQQAMDQLYYVTELTHRIRSKSSPDENENEVEDSADFVSFFPDFVWTLRDFSLDLEADGQPLTPDEYLTYSLGGGSGGGSQKDETFNLPRLCIRKFFPKKKCFVFDRPVHRRKLAQLEKLQDEELDPEFVQQVADFCSYIFSNSKTKTLSGGIQVNGPRLESLVLTYVNAISSGDLPCMENAVLALAQIENSAAVQKAIAHYEQQMGQKVQLPTETLQELLDLHRDSEREAIEVFIRSSFKDVDHLFQKELAAQLEKKRDDFCKQNQEASSDRCSALLQVIFSPLEEEVKAGIYSKPGGYRLFVQKLQDLKKKYYEEPRKGIQAEEILQTYLKSKESMTDAILQTDQTLTEKEKEIEVERVKAESAQASAKMLQEMQRKNEQMMEQKERSYQEHLKQLTEKMENDRVQLLKEQERTLALKLQEQEQLLKEGFQKESRIMKNEIQDLQTKMRRRKACTIS
modifications: farnesyl moiety at the C-terminal CaaX box motif
notes: as for B3
B5: GBP1 Δ207-213, non-farnesylated (natural protein, human, UniProt P32455 1-592, looked up)
chain: B4 chain
notes: as for B2
B6: isolated LG domain of GBP1 Δ207-216 (domain or fragment, human, UniProt P32455 1-317, looked up)
chain: MASEIHMTGPMCLIENTNGRLMANPEALKILSAITQPMVVVAIVGLYRTGKSYLMNKLAGKKKGFSLGSTVQSHTKGIWMWCVPHPKKPGHILVLLDTEGLGDVEKGDNQNDSWIFALAVLLSSTFVYNSIGTINQQAMDQLYYVTELTHRIRSKSSPDENENEVEDSADFVSFFPDFVWTLRDFSLDLEADGQPLTPDEYLTYSLGGGSETFNLPRLCIRKFFPKKKCFVFDRPVHRRKLAQLEKLQDEELDPEFVQQVADFCSYIFSNSKTKTLSGGIQVNGPRLESLVLTYVNAISSGDLPCMENAVL
notes: as for B1
B7: GBP1 D199A, non-farnesylated (natural protein, human, UniProt P32455 1-592, looked up)
chain: MASEIHMTGPMCLIENTNGRLMANPEALKILSAITQPMVVVAIVGLYRTGKSYLMNKLAGKKKGFSLGSTVQSHTKGIWMWCVPHPKKPGHILVLLDTEGLGDVEKGDNQNDSWIFALAVLLSSTFVYNSIGTINQQAMDQLYYVTELTHRIRSKSSPDENENEVEDSADFVSFFPDFVWTLRDFSLDLEADGQPLTPAEYLTYSLKLKKGTSQKDETFNLPRLCIRKFFPKKKCFVFDRPVHRRKLAQLEKLQDEELDPEFVQQVADFCSYIFSNSKTKTLSGGIQVNGPRLESLVLTYVNAISSGDLPCMENAVLALAQIENSAAVQKAIAHYEQQMGQKVQLPTETLQELLDLHRDSEREAIEVFIRSSFKDVDHLFQKELAAQLEKKRDDFCKQNQEASSDRCSALLQVIFSPLEEEVKAGIYSKPGGYRLFVQKLQDLKKKYYEEPRKGIQAEEILQTYLKSKESMTDAILQTDQTLTEKEKEIEVERVKAESAQASAKMLQEMQRKNEQMMEQKERSYQEHLKQLTEKMENDRVQLLKEQERTLALKLQEQEQLLKEGFQKESRIMKNEIQDLQTKMRRRKACTIS
notes: GBP1, human, full-length construct with D199A in helix α4; also called pivot point mutant; source: E. coli, pQE-80L, purified (Ni Sepharose HP, Superdex 200)
B8: GBP1 D199K, non-farnesylated (natural protein, human, UniProt P32455 1-592, looked up)
chain: B7 chain with A199K
notes: GBP1, human, full-length construct with D199K in helix α4; also called pivot point mutant; source: E. coli, pQE-80L, purified (Ni Sepharose HP, Superdex 200)
B9: isolated LG domain of GBP1 Δ207-213 (domain or fragment, human, UniProt P32455 1-317, looked up)
chain: MASEIHMTGPMCLIENTNGRLMANPEALKILSAITQPMVVVAIVGLYRTGKSYLMNKLAGKKKGFSLGSTVQSHTKGIWMWCVPHPKKPGHILVLLDTEGLGDVEKGDNQNDSWIFALAVLLSSTFVYNSIGTINQQAMDQLYYVTELTHRIRSKSSPDENENEVEDSADFVSFFPDFVWTLRDFSLDLEADGQPLTPDEYLTYSLGGGSGGGSQKDETFNLPRLCIRKFFPKKKCFVFDRPVHRRKLAQLEKLQDEELDPEFVQQVADFCSYIFSNSKTKTLSGGIQVNGPRLESLVLTYVNAISSGDLPCMENAVL
notes: as for B1

Assays:
[1] = molecular target: the molecule itself; assay: SEC; analytical SEC (Superdex 200 5/150), 20 µM protein with 200 µM GDP, 300 µM AlCl3, 10 mM NaF (GDP•AlFx); 50 mM Tris-HCl pH 7.9, 150 mM NaCl, 5 mM MgCl2
[2] = molecular target: the molecule itself; assay: cross-linking; BS3 at 20-times molar excess, 20 µM protein, with 200 µM GDP, 300 µM AlCl3, 10 mM NaF (GDP•AlFx); 50 mM HEPES, 150 mM NaCl, 5 mM MgCl2; SDS-PAGE
[3] = molecular target: the molecule itself; assay: specific GTPase activity against protein concentration (HPLC), quadratic fit; apparent Kd of dimer formation; non-farnesylated GBP1, 1 mM GTP, 37 °C, 50 mM Tris-HCl pH 7.9, 150 mM NaCl, 5 mM MgCl2; dimer to monomers

Row | Protein | stoichiometry N [1] | binding result [2] | other results
1 | B1 | 2 |  | 
2 | B2 |  |  | stoichiometry N [2]: 2; fold lower dimerization affinity than wild-type GBP1 [3]: 1.8 fold
3 | B3 |  | binds | 
4 | B4 |  | binds | 
5 | B5 |  |  | stoichiometry N [2]: 2; fold lower dimerization affinity than wild-type GBP1 [3]: 3 fold
6 | B6 | 2 |  | 
7 | B7 |  | binds | 
8 | B8 |  | binds | 
9 | B9 | 2 |  | 
